Test [1] deals with Transcobalamin (TC), B12-bound, as in the TC:TCblR complex (human, UniProt P20062). The experiment in a line: crystal structure.
The target of test [2] is Transcobalamin receptor TCblR (CD320), crystallization construct, as in the TC:TCblR complex (human, UniProt Q9NPF0). Put plainly: crystal structure.
Test [3] has as its target B12-bound complex of transcobalamin (TC) and its receptor TCblR (Homo sapiens). Put plainly: MST.

The term Kd denotes a measure of binding affinity in units of concentration. A higher Kd goes with lower affinity.

Transcobalamin (TC), B12-bound, as in the TC:TCblR complex, sequence (P20062 19-427, one chain of several): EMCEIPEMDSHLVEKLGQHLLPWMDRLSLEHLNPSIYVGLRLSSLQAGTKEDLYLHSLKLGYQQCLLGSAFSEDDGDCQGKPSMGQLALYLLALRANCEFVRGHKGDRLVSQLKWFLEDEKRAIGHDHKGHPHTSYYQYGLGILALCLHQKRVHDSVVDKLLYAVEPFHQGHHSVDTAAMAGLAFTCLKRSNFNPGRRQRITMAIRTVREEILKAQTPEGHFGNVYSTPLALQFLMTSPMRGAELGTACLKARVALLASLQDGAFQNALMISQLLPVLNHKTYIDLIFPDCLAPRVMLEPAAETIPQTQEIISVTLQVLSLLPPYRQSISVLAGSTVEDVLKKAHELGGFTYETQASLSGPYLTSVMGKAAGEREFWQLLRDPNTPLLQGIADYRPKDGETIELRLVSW
B12-bound complex of transcobalamin (TC) and its receptor TCblR (Homo sapiens), sequence (P20062 19-427 R227Q, chain 1 of 2): as the sequence (P20062 19-427, one chain of several) above, with R209Q counted along it
B12-bound complex of transcobalamin (TC) and its receptor TCblR (Homo sapiens), sequence (Q9NPF0 53-171, chain 2 of 2, further chain): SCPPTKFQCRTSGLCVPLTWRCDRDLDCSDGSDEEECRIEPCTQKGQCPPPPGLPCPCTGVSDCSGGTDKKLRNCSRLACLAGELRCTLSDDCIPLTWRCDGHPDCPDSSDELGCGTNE
Transcobalamin receptor TCblR (CD320), crystallization construct, as in the TC:TCblR complex, sequence (Q9NPF0 53-171, one chain of several): as the sequence (Q9NPF0 53-171, chain 2 of 2, further chain) above

B1: Nanobody TCNB4 (VHH)
VHH: QRQLVESGGGLVQPGGSLRLSCAASGFTPGIYDIGWFRQAPGKEREGVSCISSRGSSTNYADSVKGRFIISRDNVKNTVYLQMNSLEPEDTAVYYCAAIYQPSNGCVLRPEYSYWGKGTPVTVSS
As to B1, the binding result in test [1] and in test [2] was “binds” in each case. The dissociation constant (Kd) in test [3] was 5.2 nM.

B2: Nanobody TCNB26 (VHH)
VHH: QVQLVESGGGLVQAGESLRLSCAASGRTFAMAWFRQAPGKEREFVAVRGWLGVTTYYADSVKGRFTISRDNAKNTLDLQMNSLKPEDTAVYYCAAGQYSSSLYDRETEYNYWGQGTRVTVSS
Turning to B2, the binding result in test [1] was “binds”. Besides, the equilibrium dissociation constant (Kd) in test [3] was 87.4 nM.

B3: Nanobody TCNB34 (VHH)
VHH: QWQLVESGGGLVQPGGSLRLSCAASGSTFSSYAMGWYRQAPGKECELVAAISRAGGSTNYADSVKGRFTISRDNAKNTVYLQMNSLKPEDTAVYYCNAAAEGETGSNWSLCEEYDYWGKGTRVTVSS
Regarding B3, the binding result in test [1] is “binds”. This molecule displayed a dissociation constant Kd in test [3] of 12.8 nM.

B4: Nanobody TCNB11 (VHH)
VHH: QLQLVESGGGLVQAGGSLRLSCTASGRTGTMGWFRQGPGKEREFVASHKWVAGSTYYADSVKGRFTISRDNAKNTLYLQMNSLKSEDTAVYYCAASSQIFYGATTSIKDFNSWGKGTRVTVSS
Regarding B4, the binding result in test [1] is “binds”.

These data come from publication doi:10.1101/2021.08.16.456495 (bioRxiv, 2021).
